Measured values reported in article PMC3828167 (PLoS Pathogens, 2013).

Target: Legionella pneumophila RalF Sec7 domain (LpRalF^Sec7, residues 1-201) (Legionella pneumophila, UniProt Q8RT31 1-201)
Assay: SEC
Details: both partners purified

B1: Human Arf1 lacking its N-terminal alpha-helix (Δ17Arf1) (domain or fragment)
chain: not shown
notes: also called Arf1-GDP; nucleotide-free Arf1
binding result: binds
